Measurements published in patent US20190282683A1.

Molecular target: Ag85b protein from Mycobacterium tuberculosis (poly-His tagged test protein) (Mycobacterium tuberculosis)

In the case of “splenocytes of mice injected with Sbi-III-IV-Ag85b (cells without a defined receptor)”, the Secreted IFN-gamma in the tissue culture supernatant (ELISA) is reported as 4 fold.
